Assay results reported in publication PMC5286379.

Legend:
Test in all cases: EMSA
Sox2 HMG (79-aa protein) = details: Sox2-Oct heterodimer on SoxOct DNA element CCATGGACATTGTAATGCAAAAGAAGCTG, n = 3-13, read off a plot
Oct4^151M POU domain = details: homodimer on MORE (OctOct) DNA element TCCTCATGAATATTCATGAGGA; n = 3-13; parent: est. 7; read off a plot
Oct6^151S POU domain = details: homodimer on MORE (OctOct) DNA element TCCTCATGAATATTCATGAGGA; n = 3-13; parent: est. 160; read off a plot

Oct4 POU domain S151M
other: cooperativity factor (Sox2 HMG (79-aa protein); parent: est. 12): 29
other: cooperativity factor (Oct4^151M POU domain): 140

Oct6 POU domain M151S
other: cooperativity factor (Sox2 HMG (79-aa protein); parent: est. 4.5): 2.5
other: cooperativity factor (Oct6^151S POU domain): 4
